In the supplement of paper PMC7877785:
± gives the uncertainty stated by the source.

Assay: self-splicing fitness, log relative to wild type (ln ratio); higher = more splicing; Tetrahymena group I intron in knt gene, E. coli kanamycin selection, DiMSum; sequences stand for … in CUCUCU…GGAGGGAAAAGUUAUCAGGCAUGCACCUGGUAGCUAGUCUUUAAACCAAUAGAUUGCAUCGGUUUAAAAGGCAAGACCGUCAAAUUGCGGGAAAGGGGUCAACAGCCGUUCAGUACCAAGUCUCAGGGGAAACUUUGAGAUGGCCUUGCAAAGGGUAUGGUAAUAAGCUGACGGACAUGGUCCUAACCACGCAGCCAAGUCCUAAGUCAACAGAUCUUCUGUUGAUAUGGAUGCAGUUCACAGACUAAAUGUCGGUCGGGGAAGAUGUAUUCUUCUCAUAAGAUAUAGUCGGACCUCUCCUUAAUGGGAGCUAGCGGAUGAAGUGAUGCAACACUGGAGCCGCUGGGAACUAAUUUGUAUGCGAAAGUAUAUUGAUUAGUUUUGGAGUACUCGUGGUCG
In short: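 Pooled colonies went to amplicon sequencing on an Illumina HiSeq 2500 after six replicate transformations. The plates were LB agar with 100 μg/mL carbenicillin, 50 μM IPTG and 0.2% rhamnose, with or without 25 μg/mL kanamycin, incubated overnight at 37°C or 30°C. The E. coli BL21(DE3) library had all eight P1ex-region intron nucleotides randomised, the intron placed in the knt kanamycin-resistance gene on pET-22b(+). DiMSum fitness is the error-weighted combination of replicate fold changes, kanamycin against none, normalised to wild type.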

Sequence	self-splicing fitness (ln) (30 °C)	self-splicing fitness (ln) (37 °C)
CGUCAGCAAUAUUACGGGAU	-4.7 ± 0.39	-2.66 ± 0.2
GAUCAGCAAUAUUACGAACU	-0.585 ± 0.056	0.06 ± 0.073
AAAUAGCAAUAUUACGCGUU	-2.16 ± 0.087	-1.22 ± 0.092
GAUCAGCAAUAUUACGUGAC	-1.62 ± 0.094	-1.63 ± 0.12
AUAAAGCAAUAUUACGUCGC	-2.83 ± 0.25	-1.41 ± 0.19
GGAUAGCAAUAUUACGUACU	-0.979 ± 0.096	0.0901 ± 0.14
UGUAAGCAAUAUUACGCGCU	-0.925 ± 0.078	-0.315 ± 0.11
GUCUAGCAAUAUUACGCAAA	-1.12 ± 0.13	-0.541 ± 0.12
GCAUAGCAAUAUUACGCAAC	-3.96 ± 0.33	-2.6 ± 0.37
UGGAAGCAAUAUUACGGCUC	-1.89 ± 0.49	-1.42 ± 0.36
AGCAAGCAAUAUUACGAAGG	-4.66 ± 0.36	-1.54 ± 0.22
AAUAAGCAAUAUUACGUCGU	-0.729 ± 0.079	-0.613 ± 0.093
GGCGAGCAAUAUUACGAAUC	-1.03 ± 0.051	-0.145 ± 0.067
AUGGAGCAAUAUUACGACGC	-1.44 ± 0.16	-0.789 ± 0.19
UCGUAGCAAUAUUACGUGCC	-3.73 ± 0.33	-1.13 ± 0.25
AAAUAGCAAUAUUACGAAUC	-2.64 ± 0.18	-2.29 ± 0.22
CAGGAGCAAUAUUACGGGGG	-2.9 ± 0.19	-2.4 ± 0.25
GCAGAGCAAUAUUACGUUGU	-5.06 ± 0.46	-3.02 ± 0.29
GCCAAGCAAUAUUACGACUG	-4.32 ± 0.23	-1.94 ± 0.15
UGAGAGCAAUAUUACGCAAC	–	-1.88 ± 0.47
UAGCAGCAAUAUUACGGGUA	-0.507 ± 0.052	0.13 ± 0.057
UAACAGCAAUAUUACGCCGU	-3.54 ± 0.24	-1.94 ± 0.19
CCCAAGCAAUAUUACGAUCU	-2.73 ± 0.14	-3.53 ± 0.27
GAAGAGCAAUAUUACGACCU	-1.45 ± 0.13	-0.296 ± 0.18
GAACAGCAAUAUUACGGACC	-0.915 ± 0.12	0.0387 ± 0.14

Sequence	self-splicing fitness (ln) (30 °C)	self-splicing fitness (ln) (37 °C)
ACGAAGCAAUAUUACGACCG	-0.458 ± 0.12	0.219 ± 0.14
CUUUAGCAAUAUUACGAGGG	-3.57 ± 0.21	-2.26 ± 0.27
UGCUAGCAAUAUUACGGCUA	-0.795 ± 0.17	0.345 ± 0.15
GUUCAGCAAUAUUACGAAAC	-1.48 ± 0.23	-0.734 ± 0.22
UCCUAGCAAUAUUACGGGCU	-2.12 ± 0.1	-1.74 ± 0.13
UUUUAGCAAUAUUACGUCAA	-2.59 ± 0.17	-1.34 ± 0.13
CAUUAGCAAUAUUACGUAAG	-0.138 ± 0.057	0.358 ± 0.074
AGAUAGCAAUAUUACGGUCA	-0.325 ± 0.08	0.317 ± 0.11
AAUAAGCAAUAUUACGUCCU	-0.0473 ± 0.076	0.0333 ± 0.088
UAUAAGCAAUAUUACGCCCU	-1.15 ± 0.16	0.38 ± 0.16
GAAGAGCAAUAUUACGGGGC	-3.46 ± 0.28	-2.28 ± 0.26
CGAAAGCAAUAUUACGGUCC	-0.283 ± 0.087	-0.129 ± 0.13
AGAUAGCAAUAUUACGGUGA	-1.9 ± 0.2	-0.858 ± 0.17
CCGCAGCAAUAUUACGGAUG	-1.99 ± 0.12	-1.54 ± 0.13
UUACAGCAAUAUUACGUACC	-1.19 ± 0.21	-0.649 ± 0.33
CGAGAGCAAUAUUACGAAAG	-3.64 ± 0.4	-1.55 ± 0.31
AUUUAGCAAUAUUACGAGUU	-2.58 ± 0.3	-0.85 ± 0.23
GGCCAGCAAUAUUACGUGGG	-4.31 ± 0.21	-3.32 ± 0.26
AAUUAGCAAUAUUACGAUUU	-0.494 ± 0.11	-0.268 ± 0.13
UAACAGCAAUAUUACGUGCG	-0.551 ± 0.072	0.0501 ± 0.085
CAUGAGCAAUAUUACGUAUG	-2.65 ± 0.21	-2.65 ± 0.22
GGCAAGCAAUAUUACGGUCA	-0.571 ± 0.09	0.329 ± 0.096
AGGAAGCAAUAUUACGUUUG	-3.55 ± 0.17	-2.48 ± 0.19
GCCCAGCAAUAUUACGUCUG	-3.86 ± 0.14	-2.73 ± 0.17
UUAAAGCAAUAUUACGGGGC	-3.68 ± 0.25	-2.51 ± 0.32

Sequence	self-splicing fitness (ln) (30 °C)	self-splicing fitness (ln) (37 °C)
GUGCAGCAAUAUUACGUGGC	-3.55 ± 0.27	-1.8 ± 0.15
AGUCAGCAAUAUUACGUAUA	-2.69 ± 0.12	-1.33 ± 0.1
UAAUAGCAAUAUUACGUCAC	-3.93 ± 0.26	0.0385 ± 0.19
UCACAGCAAUAUUACGUGCC	-1.42 ± 0.11	0.00553 ± 0.12
ACCAAGCAAUAUUACGAACC	-1.62 ± 0.1	-0.978 ± 0.12
UCCUAGCAAUAUUACGAACU	-2.54 ± 0.19	-1.6 ± 0.23
ACUGAGCAAUAUUACGCGUG	-2.2 ± 0.092	-1.05 ± 0.1
AAAUAGCAAUAUUACGUUGC	-2.63 ± 0.23	-2.98 ± 0.3
UAGUAGCAAUAUUACGUACU	-0.816 ± 0.12	-0.109 ± 0.12
UAAAAGCAAUAUUACGUACG	-0.745 ± 0.084	0.35 ± 0.12
CCUCAGCAAUAUUACGGUAG	-0.514 ± 0.05	-0.195 ± 0.067
UCCGAGCAAUAUUACGGCGG	-2.11 ± 0.14	-2.2 ± 0.15
GCCCAGCAAUAUUACGGUCU	-1.97 ± 0.063	-0.732 ± 0.081
UAAUAGCAAUAUUACGAUAG	-2.06 ± 0.27	-2.99 ± 0.38
AUACAGCAAUAUUACGAGGG	-3.68 ± 0.2	-2.21 ± 0.19
CCAUAGCAAUAUUACGGACA	-3.36 ± 0.23	-1.14 ± 0.16
CGCAAGCAAUAUUACGGUGG	-0.599 ± 0.064	-0.2 ± 0.079
CAUAAGCAAUAUUACGUUCA	-3.29 ± 0.13	-1.95 ± 0.13
CUGUAGCAAUAUUACGCGUA	-3.3 ± 0.3	-2.89 ± 0.25
CCGCAGCAAUAUUACGGCCG	-0.461 ± 0.12	0.198 ± 0.15
GGAGAGCAAUAUUACGCGGG	-2.21 ± 0.35	–
AGUCAGCAAUAUUACGGUCU	-0.851 ± 0.06	-0.146 ± 0.068
AACCAGCAAUAUUACGUUAU	-2.18 ± 0.055	-0.941 ± 0.058
CCUGAGCAAUAUUACGAGCG	-2.57 ± 0.14	-0.727 ± 0.14
AUGAAGCAAUAUUACGGAAC	-0.855 ± 0.098	-1.24 ± 0.15

Sequence	self-splicing fitness (ln) (30 °C)	self-splicing fitness (ln) (37 °C)
CCAUAGCAAUAUUACGAGAG	-3.57 ± 0.16	-2.56 ± 0.14
GGUGAGCAAUAUUACGAGUG	-2.19 ± 0.41	-2.55 ± 0.27
UUUAAGCAAUAUUACGGAAU	-3.63 ± 0.26	-2.36 ± 0.33
CACGAGCAAUAUUACGUUGU	-3.37 ± 0.15	-2.8 ± 0.18
GUAAAGCAAUAUUACGGGUU	-1.72 ± 0.13	-1.86 ± 0.18
GUGAAGCAAUAUUACGCCAA	-0.702 ± 0.13	-1.88 ± 0.16
GACGAGCAAUAUUACGACAG	–	-1.89 ± 0.23
CCAAAGCAAUAUUACGAGUG	-0.346 ± 0.039	-0.144 ± 0.058
GCUUAGCAAUAUUACGUGUU	-0.915 ± 0.081	-0.409 ± 0.087
UGAGAGCAAUAUUACGGAUA	–	-2.5 ± 0.26
GUACAGCAAUAUUACGGGAA	-3.59 ± 0.25	-2.24 ± 0.22
CUGUAGCAAUAUUACGACCA	-1.45 ± 0.38	–
CUACAGCAAUAUUACGUCCG	-0.955 ± 0.095	0.368 ± 0.12
CGUUAGCAAUAUUACGUCCC	–	-0.641 ± 0.36
AACUAGCAAUAUUACGCGGG	-2.78 ± 0.15	-2.37 ± 0.19
UUAAAGCAAUAUUACGAUCU	-0.857 ± 0.065	-0.22 ± 0.088
GGGAAGCAAUAUUACGAUAU	-0.722 ± 0.15	-0.709 ± 0.23
CUUCAGCAAUAUUACGACGU	-3.67 ± 0.21	-2.12 ± 0.21
CGCUAGCAAUAUUACGACGU	-1.86 ± 0.1	-0.355 ± 0.12
AAUGAGCAAUAUUACGAACA	-1.5 ± 0.45	-1.2 ± 0.48
UCACAGCAAUAUUACGAUAU	-2.96 ± 0.22	-2.67 ± 0.19
CCAGAGCAAUAUUACGGUAG	-2.14 ± 0.11	-2.34 ± 0.2
